Tests used:
[1] = target: T1, CD40 (Acro Biosystems), coated on plate (UniProt P25942 21-193); experiment: ELISA, CD40 coated at 1 µg/ml, detection with anti-human IgG-Fc-peroxidase
T1 construct: Bought antigen; the construct is not described; also called target antigen
Description: (§1) The affinities of the exemplary monovalent antibodies, in the prodrug and activated forms, were measured by an ELISA assay. Briefly, target antigens, CD40 or CTLA4 (both from Acro Biosystems), were coated at 1 μg/ml in a Nunc MaxiSorp plate (ThermoFisher) for 1 hour and blocked with SuperBlock (ThermoFisher). The exemplary monovalent antibodies, whether intact or matriptase-activated, were added at concentrations ranging from 0.001 to 1000 nM, as indicated in the x-axis of each plot shown in FIG. 4, and incubated for 1 hour at room temperature. Plates were washed 3 times using PBS supplemented with 0.05% Tween-20 (PBS-T). Goat anti-human IgG-Fc-peroxidase conjugate antibody (Sigma) was used at 1:10,000 dilution in PBS-T and incubated for an additional hour. Plates were washed 3 times using PBS-T, followed by development using TMB substrate (ThermoFisher), and neutralizing with 0.1 M sulfuric acid. The resulting colorimetric assay was measured at 450 nm using SpectraMax spectrophotometer (Molecular Devices).
(§2) Differential binding of the inducible monovalent antibodies in their prodrug and active forms was determined by comparing the apparent KD of the untreated (prodrug) or the protease-treated (active) forms of the inducible monovalent antibodies to their target antigens in an ELISA assay (results shown in FIG. 4).

[2] = target: T2, CTLA4 (Acro Biosystems), coated on plate (UniProt P16410 37-162, limits assumed); experiment: ELISA, CTLA4 coated at 1 µg/ml, detection with anti-human IgG-Fc-peroxidase
T2 construct: Bought antigen; the construct is not described; also called target antigen
T2 sequence (looked up): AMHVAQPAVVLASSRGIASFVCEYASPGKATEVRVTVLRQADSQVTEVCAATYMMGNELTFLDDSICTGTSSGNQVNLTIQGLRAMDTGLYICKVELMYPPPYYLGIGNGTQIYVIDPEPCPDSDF
Description: as §1, §2

T1 sequence (P25942 21-193 limits assumed): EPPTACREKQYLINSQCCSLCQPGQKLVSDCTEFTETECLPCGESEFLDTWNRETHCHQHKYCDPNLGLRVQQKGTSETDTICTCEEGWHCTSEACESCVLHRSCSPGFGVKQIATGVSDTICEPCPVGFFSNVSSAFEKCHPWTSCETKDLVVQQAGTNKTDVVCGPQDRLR

B1: Dace-ProMonoMab, matriptase-treated (active form) (antibody, V domains shown)
VH: EVQLVESGGGLVQPGGSLRLSCAASGYSFTGYYIHWVRQAPGKGLEWVARVIPNAGGTSYNQKFKGRFTLSVDNSKNTAYLQMNSLRAEDTAVYYCAREGIYWWGQGTLVTVSS
VL: DIQMTQSPSSLSASVGDRVTITCRSSQSLVHSNGNTFLHWYQQKPGKAPKLLIYTVSNRFSGVPSRFSGSGSGTDFTLTISSLQPEDFATYFCSQTTHVPWTFGQGTKVEIKG
notes: Same chains as the prodrug, treated overnight with 40 nM recombinant human matriptase; also called protease-treated
fold difference in apparent affinity (apparent KD), matriptase-treated against untreated prodrug [1]: 5.1 fold

B2: Treme-ProMonoMab, matriptase-treated (active form) (antibody, V domains shown)
VH: QVQLVESGGGVVQPGRSLRLSCAASGFTFSSYGMHWVRQAPGKGLEWVAVIWYDGSNKYYADSVKGRFTISRDNSKNTLYLQMNSLRAEDTAVYYCARDPRGATLYYYYYGMDVWGQGTTVTVSS
VL: DIQMTQSPSSLSASVGDRVTITCRASQSINSYLDWYQQKPGKAPKLLIYAASSLQSGVPSRFSGSGSGTDFTLTISSLQPEDFATYYCQQYYSTPFTFGPGTKVEIKG
notes: as for B1
fold difference in apparent affinity (apparent KD), matriptase-treated against untreated prodrug [2]: 5.3 fold

B3: Seli-ProMonoMab, matriptase-treated (active form) (antibody, V domains shown)
VH: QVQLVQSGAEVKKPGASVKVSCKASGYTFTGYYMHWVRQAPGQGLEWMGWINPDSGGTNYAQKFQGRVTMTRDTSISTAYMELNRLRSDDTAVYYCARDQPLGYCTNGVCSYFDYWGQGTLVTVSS
VL: DIQMTQSPSSVSASVGDRVTITCRASQGIYSWLAWYQQKPGKAPNLLIYTASTLQSGVPSRFSGSGSGTDFTLTISSLQPEDFATYYCQQANIFPLTFGGGTKVEIKG
notes: Same chains as the prodrug, treated overnight with 40 nM recombinant human matriptase
fold difference in apparent affinity (apparent KD), matriptase-treated against untreated prodrug [1]: 2 fold
